Patent US12397037B2, “Methods and compositions for immunomodulation” (CHILDREN'S MEDICAL CENTER CORPORATION, priority 2014, dated 2025)

What was measured:
[1] = system: U251 glioblastoma cells, a melanocyte cell line, Jurkat T lymphocytes, and endothelial cells; assay: Western blot in other cell lines expressing NRP2; type: cell-based, human; details: SEMA3F 30 minutes
Method: FIGS. 34A-34D depict analysis of intracellular signaling pathway regulated by SEMA3F. FIG. 34A depicts a Western blot of the expression of pAkt, pmTOR and pS6K in U87MG cells treated with SEMA3F or PBS for 60 minutes and. FIG. 34B depicts a Western blot. U87MG cells were transfected with control or Plexin A1-specific siRNA (20 nM). After 48 hours, cells were treated with SEMA3F (640 ng/ml) for 30 and 60 minutes, and were analyzed by Western blot. FIG. 34C depicts NRP2 and Plexin A1 expression analyzed by Western blot with multiple cell lines. FIG. 34D depicts a Western blot of multiple NRP2-expressing cell lines were treated with SEMA3F for 30 minutes. All data presented are representative of 3 independent experiments.
SEMA3F inhibits Akt, mTOR, and S6K phosphorylation. To determine the effect of SEMA3F on intracellular signaling responses, levels of phosphokinases in the NRP2-expressing human glioblastoma cell line U87MG were profiled.
Western blotting: Proteins within each sample were separated by SDS-PAGE and transferred to nitrocellulose membranes. […] After washing with TBS-T, membranes were incubated with the appropriate horseradish peroxidase-conjugated secondary antibody, and immunoreactivity was detected by using ECL detection reagents.

U87MG cells [2] = assay: Western blot of PI-3K/Akt-mTOR and MAPK signaling in U87MG cells; type: cell-based, human
Method: U87MG which express NRP-2 were used for this assay.
To determine the effect of SEMA3F on intracellular signaling responses, levels of phosphokinases in the NRP2-expressing human glioblastoma cell line U87MG were profiled.
Western blotting: Proteins within each sample were separated by SDS-PAGE and transferred to nitrocellulose membranes. The membranes were blocked with 4% skimmed milk in TBS-T (0.1% Tween 20 in tris-buffered saline [TBS]) for 30 minutes, followed by incubation with the primary antibody. After washing with TBS-T, membranes were incubated with the appropriate horseradish peroxidase-conjugated secondary antibody, and immunoreactivity was detected by using ECL detection reagents.

U87MG cells [3] = assay: F-actin stress fiber staining (phalloidin) in U87MG cells; type: cell-based, human
Method: FIG. 30A depicts U87MG cells treated with SEMA3F (640 ng/ml), rapamycin (10 nM) or Torin 1 (10 nM) for 30 minutes. Subsequently, cells were stained with Alexa Fluor 488 phalloidin and Hoechst 33342 to identify F-actin cytoskeleton stress fibers and cellular nuclei, respectively. […] The scale bar indicates 20 μm. FIG. 30B depicts U87MG cells transiently transfected with a pcDNA3.1 empty vector or with a wild type (WT) mTOR plasmid and after 18 hours treated with SEMA3F (640 ng/ml) for 30 minutes. Cells were stained as described above in FIG. 30A. Representative cellular staining is shown; bar graph represents the number of fibers/cell (mean±SD) from 3 independent experiments. FIG. 30C depicts U87MG cells transfected with control siRNA or with raptor- or rictor-specific siRNAs (20 nM). After 48 hours, they were treated with SEMA3F for 30 minutes and stained with Alexa Fluor 488 phalloidin and Hoechst 33342 as above. The number of stress fibers was evaluated in 3 independent experiments and shown as the mean±SD. FIG. 30D depicts U87MG cells transiently transfected with pcDNA3.1 empty vector or with our WT mTOR plasmid. After 18 hours, the cells were treated with SEMA3F (640 ng/ml) for 10 minutes and RhoA activity was evaluated. FIG. 30E depicts U87MG cells transfected with control siRNA or with raptor- or rictor-specific siRNAs (20 nM), were treated with SEMA3F (640 ng/ml) for 10 minutes and RhoA activity was analyzed. In FIGS. 30D-30E, the intensity of active RhoA was normalized to respective total RhoA; the numbers below each gel lane represent the fold-change in intensity relative to control. FIGS. 30D-30E are representative of 3 independent experiments.
mTORC2 links SEMA3F biology with the F-actin cytoskeleton. It was next determined whether the inhibition of mTORC2 serves as an intermediary response to link SEMA3F activity with cytoskeletal collapse. U87MG cells were treated either with SEMA3F (640 ng/ml), rapamycin (10 nM) or Torin 1 (10 nM) for 30 minutes and the actin cytoskeleton was visualized using phalloidin staining. […] These findings indicate that SEMA3F has minimal direct effects on mTORC1.
F-actin staining: Cells were fixed with 4% paraformaldehyde (PFA) followed by permeabilization with 0.2% Triton X-100 in PBS. F-actin and nuclei were stained with Alexa Fluor 488 phalloidin and Hoechst 33342, respectively. Confocal images from 3-5 areas of each culture were reviewed and stress fibers were counted in representative individual cells (˜5/experiment) using standard methodology as described6.

U87MG cells [4] = details: U87MG cells within 24 hours; reference 6; cited from earlier work
[5] = U87MG cells, 640 ng/ml time course

B1: SEMA3F: Human recombinant full-length His-Myc-tagged SEMA3F, secreted by transfected 293T cells and purified; class 3 semaphorin, NRP-2 ligand (protein, listed as Homo sapiens)
chain: MLVAGLLLWASLLTGAWPSFPTQDHLPATPRVRLSFKELKATGTAHFFNFLLNTTDYRILLKDEDHDRMYVGSKDYVLSLDLHDINREPLIIHWAASPQRIEECVLSGKDVNGECGNFVRLIQPWNRTHLYVCGTGAYNPMCTYVNRGRRAQATPWTQTQAVRGRGSRATDGALRPMPTAPRQDYIFYLEPERLESGKGKCPYDPKLDTASALINEELYAGVYIDFMGTDAAIFRTLGKQTAMRTDQYNSRWLNDPSFIHAELIPDSAERNDDKLYFFFRERSAEAPQSPAVYARIGRICLNDDGGHCCLVNKWSTFLKARLVCSVPGEDGIETHFDELQDVFVQQTQDVRNPVIYAVFTSSGSVFRGSAVCVYSMADIRMVFNGPFAHKEGPNYQWMPFSGKMPYPRPGTCPGGTFTPSMKSTKDYPDEVINFMRSHPLMYQAVYPLQRRPLVVRTGAPYRLTTIAVDQVDAADGRYEVLFLGTDRGTVQKVIVLPKDDQELEELMLEEVEVFKDPAPVKTMTISSKRQQLYVASAVGVTHLSLHRCQAYGAACADCCLARDPYCAWDGQACSRYTASSKRRSRRQDVRHGNPIRQCRGFNSNANKNAVESVQYGVAGSAAFLECQPRSPQATVKWLFQRDPGDRRREIRAEDRFLRTEQGLLLRALQLSDRGLYSCTATENNFKHVVTRVQLHVLGRDAVHAALFPPLSMSAPPPPGAGPPTPPYQELAQLLAQPEVGLIHQYCQGYWRHVPPSPREAPGAPRSPEPQDQKKPRNRRHHPPDT
modifications: His-Myc tag
notes: Human recombinant full-length His-Myc-tagged SEMA3F, secreted by transfected 293T cells and purified; class 3 semaphorin, NRP-2 ligand
With B1 the “Akt (S473) and S6K phosphorylation” value [1] was “inhibited”, the “pSGK1 (S422) and pPKC (S657)” value (U87MG cells [2]; U87MG cells) was “inhibited” and the “pS6K and pS6 in 2DAkt transfected cells” value (U87MG cells [2]; U87MG cells transfected with constitutively active Akt (2DAkt), SEMA3F 640 ng/ml) was “no change in expression”. The “persistence of inhibitory effect” value (U87MG cells [2]; [5]) was “greater than 60 minutes”, the “time within which pAkt (T308 and S473), pmTOR, pS6K and pS6 were inhibited” value (U87MG cells [2]; [5]) was 10-20 minutes and the “pAkt (S473) in 2DAkt transfectants” value (U87MG cells [2]; U87MG cells, SEMA3F 640 ng/ml) was “reduced the level of pAkt (S473)”. The “pAkt (T308 and S473) and pS6K” value (U87MG cells [2]; U87MG cells, SEMA3F 640 ng/ml for 60 minutes vs untreated) was “reduced levels of pAkt (T308 and S473) and pS6K”, the “inhibition of expression of pAkt (S473) (densitometry)” value (U87MG cells [2]; U87MG cells, SEMA3F ~640 ng/mL, after 10 min) was > 80% and the “pAkt and pS6K after rapamycin pretreatment” value (U87MG cells [2]; U87MG cells, rapamycin 30 minutes, then SEMA3F and rapamycin for 60 minutes) was “reduced levels of both pAkt and pS6K”. The “pAkt, pS6K and pS6 in NRP2 and Plexin A1-siRNA transfected cells” value (U87MG cells [2]; U87MG cells, siRNA 20 nM, SEMA3F 640 ng/ml) was “failed to inhibit”, the “concentration at which peak effects were observed” value (U87MG cells [2]; U87MG cells, signaling) was ~600 ng/mL and the “expression of pERK1/2” value (U87MG cells [2]; U87MG cells, ~640 ng/mL) was “markedly reduced”. For the same molecule, the “time of peak effect on pERK1/2” value (U87MG cells [2]; U87MG cells, ~640 ng/mL) was ≤ 30 mins, the “pAkt (S473), pAkt (T308), pmTOR and pS6K” value (U87MG cells [2]; U87MG cells, ~640 ng/mL, by 30 min) was “most significant reduction” and the “pAkt and pS6K signaling at the lowest concentration” value (U87MG cells [2]; U87MG, SEMA3F 200 ng/ml, 30 minutes) was “inhibits pAkt and pS6K signaling”. For the same molecule, the “stress fiber formation in mTOR overexpressing cells” value (U87MG cells [3]; U87MG cells transfected with mTOR overexpression construct, SEMA3F 640 ng/ml, 30 minutes) was “minimal effects on stress fiber formation”, the “stress fiber formation and cytoskeletal arrangement” value (U87MG cells [3]; U87MG cells, SEMA3F 640 ng/ml, rapamycin 10 nM or Torin 1 10 nM, 30 minutes, vs untreated) was “markedly inhibits stress fiber formation and cytoskeletal arrangement” and the “stress fiber formation in raptor-siRNA treated cells” value (U87MG cells [3]; U87MG cells, siRNA 20 nM, SEMA3F 30 minutes) was “reduced stress fiber formation”. The “inhibition of stress fiber formation” value (U87MG cells [3]; pcDNA3.1 control vector transfected U87MG cells, SEMA3F 640 ng/ml, 30 minutes) was 90% and the apoptosis (U87MG cells [4]) was “does not induce apoptosis”.
